The values below come from US20090312249A1.

In general, Kd refers to the constant that tells how readily two partners part at equilibrium. The low end stands for tighter binding, the high end for weaker binding. Broadly, the koff is the rate constant with which the complex falls apart. The low end stands for a long-lived complex, the high end for a short-lived complex. Usually kon stands for a measure of how fast the partners come together.

Experiment [1] concerns the target MD-2 (myeloid differentiation protein-2) (UniProt Q9Y6Y9). The experiment in a line: SPR (BIAcore 3000), TFL amine-coupled on CM5 chip, MD-2 8-250 nM as analyte, 1:1 Langmuir model, 25 C.
Sequence of UniProt Q9Y6Y9 (Q9Y6Y9 19-160 limits assumed): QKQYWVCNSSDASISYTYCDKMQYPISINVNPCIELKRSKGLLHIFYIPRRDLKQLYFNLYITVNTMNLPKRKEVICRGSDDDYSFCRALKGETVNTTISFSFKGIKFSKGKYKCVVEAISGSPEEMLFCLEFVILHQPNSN
Experiment [2] has the same target. The experiment in a line: SPR (BIAcore 3000): TFL amine-coupled on a CM5 chip, MD-2 at 8 to 250 nM as analyte, 25 C, 1:1 Langmuir fit. For orientation: SPR reads the build-up and loss of mass on a sensor chip optically.

On to “TFL (Fc-tagged hTLR4 full-length ectodomain) (Fc fusion)”, for which the Kd in experiment [1] amounted to 81 nM. In addition, in experiment [2], the Kd was found to be 81.1 nM, the dissociation rate constant (koff) turned out to be 0.00187 s⁻¹ and the kon stood at 23100 M⁻¹ s⁻¹.
